{"source": "patent US6746859", "key": {"[1]": {"target": "T1, E. coli thioredoxin/human IL-11 fusion protein with enterokinase cleavage spacer (UniProt P20809)", "T1 sequence": "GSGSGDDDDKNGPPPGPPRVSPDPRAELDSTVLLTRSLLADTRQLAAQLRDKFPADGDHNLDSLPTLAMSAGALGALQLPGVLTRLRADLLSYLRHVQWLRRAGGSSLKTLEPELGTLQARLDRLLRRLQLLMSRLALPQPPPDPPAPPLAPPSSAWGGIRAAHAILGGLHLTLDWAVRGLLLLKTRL"}, "[2]": {"tested_on": "T2, Gly-(Asp4)-Lys-βNA fluorogenic enterokinase substrate", "T2 sequence": "GDDDDK"}, "[3]": {"tested_on": "Trypsinogen"}}, "data": [{"substance": "bovine-derived enterokinase holoenzyme (heavy and light chains)", "values": [{"measurement": "EFFICIENCY OF CLEAVAGE (relative molar activities) (relative molar activity)", "setting": "[1]", "value": 1}, {"measurement": "EFFICIENCY OF CLEAVAGE (relative molar activities) (relative molar activity)", "setting": "[2]", "value": 1}, {"measurement": "EFFICIENCY OF CLEAVAGE (relative molar activities) (relative molar activity)", "setting": "[3]", "value": 100}]}]}
